Series [1] concerns the target Ac-K206 MITF DBD (Homo sapiens) (UniProt O75030). In words: fluorescence anisotropy. As to conditions: 10 mM Tris/HCl pH 7.5, 300 mM NaCl, 0.01% Triton X-100, 0.1 mg/mL BSA, 25 C, 5 min, 1.33 nM dsDNA, quadratic fit, n=3. In general terms: Polarisation of emitted light reports the rotation of a fluorescent probe.
Series [2] concerns the target T1, MITF DBD WT (UniProt Q08874 287-403). As to the kind of experiment: fluorescence anisotropy; 10 mM Tris/HCl pH 7.5, 300 mM NaCl, 0.01% Triton X-100, 0.1 mg/mL BSA, 25 C, 5 min, 1.33 nM dsDNA; quadratic fit, n=3. As to conditions: protein: recombinant; tags: His (Ni-NTA purified; pETM-11); chain copies: 2; label: 3' fluorescein on strand 1; blunt (annealed with complementary oligonucleotide).

The target in series [3] is T1, MITF DBD WT. As to the kind of experiment: fluorescence anisotropy; moderately reduced vs CLEAR-box; 10 mM Tris/HCl pH 7.5, 300 mM NaCl, 0.01% Triton X-100, 0.1 mg/mL BSA, 25 C, 5 min, 1.33 nM dsDNA; quadratic fit, n=3. As to conditions: protein: recombinant; tags: His (Ni-NTA purified; pETM-11); chain copies: 2; label: 3' fluorescein on strand 1; blunt (annealed with complementary oligonucleotide).

Sequence of Ac-K206 MITF DBD (Homo sapiens) (O75030 whole entry): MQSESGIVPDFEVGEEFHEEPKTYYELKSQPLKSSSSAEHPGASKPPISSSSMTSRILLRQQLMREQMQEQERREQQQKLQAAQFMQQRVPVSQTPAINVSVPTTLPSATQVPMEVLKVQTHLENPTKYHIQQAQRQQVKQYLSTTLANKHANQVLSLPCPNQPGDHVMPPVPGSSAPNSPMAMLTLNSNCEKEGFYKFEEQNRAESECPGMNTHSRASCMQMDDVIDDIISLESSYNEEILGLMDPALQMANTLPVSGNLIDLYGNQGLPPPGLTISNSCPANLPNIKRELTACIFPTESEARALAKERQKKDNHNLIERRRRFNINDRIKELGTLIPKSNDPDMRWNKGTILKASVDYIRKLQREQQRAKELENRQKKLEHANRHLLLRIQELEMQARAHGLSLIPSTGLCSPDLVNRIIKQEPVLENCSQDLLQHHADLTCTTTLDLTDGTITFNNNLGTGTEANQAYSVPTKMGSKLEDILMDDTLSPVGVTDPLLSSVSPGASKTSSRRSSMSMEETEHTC
T1 sequence (Q08874 287-403): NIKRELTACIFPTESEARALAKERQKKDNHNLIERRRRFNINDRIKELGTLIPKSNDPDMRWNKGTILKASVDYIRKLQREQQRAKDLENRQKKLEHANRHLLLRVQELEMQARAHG

Turning to “GAGATCACGTGATGAC (double strand) [CLEAR-box]”, in series [1], the binding signal (fold reduced vs WT on CLEAR-box) worked out at 3.

“GAGATCATGTGATGAC (double strand) [TYR enhancer]” gave a binding signal in series [1] (scale: fold further reduced vs Ac-K206 on CLEAR-box) of 5.

In turn, “GAGATCATGTGTTGAC (double strand) [M-box]” displayed a binding signal (fold reduced vs Ac-K206 on CLEAR-box) in series [1] of 20.

B1: CLEAR-box (dsDNA)
DNA 1: GAGATCACGTGATGAC
DNA 2: GTCATCACGTGATCTC
Regarding B1, the binding result with MITF DBD WT [2] was “binds”.

B2: TYR enhancer (dsDNA)
DNA 1: GAGATCATGTGATGAC
DNA 2: GTCATCACATGATCTC
On to B2, for which, in the series with MITF DBD WT [3], the binding result is “binds”.

Values taken from PMC10539308, “Acetylation reprograms MITF target selectivity and residence time”.
